Assay results as given in patent EP3919091A1.

Biological target: PIF6-SnoopCatcher (SnoopCatcher-mCherry-PIF6(A. thaliana, amino acids: 1-100, Cys9Ser, Cys10Ser)-His6), coupled to 8-arm PEG-SnoopTag (A. thaliana) (UniProt Q8L5W7)
Experiment: cell-based or functional assay

UniProt Q8L5W7, sequence (Q8L5W7 other isoform, or with tags, fused parts or gaps C10S C10S): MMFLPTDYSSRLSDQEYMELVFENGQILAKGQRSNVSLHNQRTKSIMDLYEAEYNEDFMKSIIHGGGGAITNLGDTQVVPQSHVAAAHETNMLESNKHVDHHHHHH

reversible cross-linking and dissolution cycles (small amplitude oscillatory shear rheology, 660 nm / 740 nm): 5 times
Substance: PhyB-SpyCatcher (PhyB(A. thaliana, amino acids: 1-651)-SpyCatcher-His6), coupled to 8-arm PEG-SpyTag (from UniProt P14713 1-651)
